Laboratory results published in patent US20150098945A1 (Daiichi Sankyo, published 2015).
Substitutions are numbered along the chain they refer to.

Experiments:
Assay in all cases: flow cytometry on transfected HEK293 cells
[1] = biological target: T1, N-terminal FLAG-tagged cynomolgus monkey ROBO4, cynoROBO4-1 (pCI-FLAG-cynoROBO4-1) (cynomolgus monkey, UniProt Q8WZ75 28-1007 (human entry))
T1 chain: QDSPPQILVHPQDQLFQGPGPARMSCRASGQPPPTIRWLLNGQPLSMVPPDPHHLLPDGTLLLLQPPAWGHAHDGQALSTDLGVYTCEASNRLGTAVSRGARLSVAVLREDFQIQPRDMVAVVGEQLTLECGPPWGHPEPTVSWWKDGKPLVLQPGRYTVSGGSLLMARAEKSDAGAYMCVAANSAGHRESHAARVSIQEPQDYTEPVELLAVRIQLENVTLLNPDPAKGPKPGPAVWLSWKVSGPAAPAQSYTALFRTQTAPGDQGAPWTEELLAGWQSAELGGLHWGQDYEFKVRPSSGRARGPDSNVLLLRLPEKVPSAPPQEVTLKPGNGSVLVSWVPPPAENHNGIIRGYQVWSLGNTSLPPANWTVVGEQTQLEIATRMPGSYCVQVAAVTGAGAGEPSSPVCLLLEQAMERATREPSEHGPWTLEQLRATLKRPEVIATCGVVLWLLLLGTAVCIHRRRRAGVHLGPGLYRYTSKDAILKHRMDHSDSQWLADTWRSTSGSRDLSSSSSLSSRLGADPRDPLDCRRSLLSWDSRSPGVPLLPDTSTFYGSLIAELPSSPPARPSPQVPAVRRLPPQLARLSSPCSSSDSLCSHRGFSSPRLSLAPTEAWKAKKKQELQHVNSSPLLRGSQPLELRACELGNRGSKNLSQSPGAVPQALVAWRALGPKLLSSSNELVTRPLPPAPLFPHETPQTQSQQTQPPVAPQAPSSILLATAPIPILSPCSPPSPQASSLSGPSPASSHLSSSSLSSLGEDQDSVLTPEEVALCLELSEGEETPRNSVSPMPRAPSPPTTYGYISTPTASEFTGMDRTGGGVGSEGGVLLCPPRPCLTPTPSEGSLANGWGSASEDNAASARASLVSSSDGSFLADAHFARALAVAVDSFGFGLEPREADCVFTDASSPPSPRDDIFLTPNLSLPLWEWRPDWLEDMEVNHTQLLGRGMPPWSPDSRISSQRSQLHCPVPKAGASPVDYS

[2] = biological target: T2, N-terminal FLAG-tagged cynomolgus monkey ROBO4, cynoROBO4-2 (pCI-FLAG-cynoROBO4-2) (cynomolgus monkey, UniProt Q8WZ75 28-1007 (human entry))
T2 chain: T1 chain with W69R, A175T, H192R, P423L, P549L, P567L, F603L

[3] = biological target: T3, mouse ROBO4 (pCI-mROBO4-transfected HEK293 cells) (mouse, UniProt Q8C310 28-1012)
T3 sequence: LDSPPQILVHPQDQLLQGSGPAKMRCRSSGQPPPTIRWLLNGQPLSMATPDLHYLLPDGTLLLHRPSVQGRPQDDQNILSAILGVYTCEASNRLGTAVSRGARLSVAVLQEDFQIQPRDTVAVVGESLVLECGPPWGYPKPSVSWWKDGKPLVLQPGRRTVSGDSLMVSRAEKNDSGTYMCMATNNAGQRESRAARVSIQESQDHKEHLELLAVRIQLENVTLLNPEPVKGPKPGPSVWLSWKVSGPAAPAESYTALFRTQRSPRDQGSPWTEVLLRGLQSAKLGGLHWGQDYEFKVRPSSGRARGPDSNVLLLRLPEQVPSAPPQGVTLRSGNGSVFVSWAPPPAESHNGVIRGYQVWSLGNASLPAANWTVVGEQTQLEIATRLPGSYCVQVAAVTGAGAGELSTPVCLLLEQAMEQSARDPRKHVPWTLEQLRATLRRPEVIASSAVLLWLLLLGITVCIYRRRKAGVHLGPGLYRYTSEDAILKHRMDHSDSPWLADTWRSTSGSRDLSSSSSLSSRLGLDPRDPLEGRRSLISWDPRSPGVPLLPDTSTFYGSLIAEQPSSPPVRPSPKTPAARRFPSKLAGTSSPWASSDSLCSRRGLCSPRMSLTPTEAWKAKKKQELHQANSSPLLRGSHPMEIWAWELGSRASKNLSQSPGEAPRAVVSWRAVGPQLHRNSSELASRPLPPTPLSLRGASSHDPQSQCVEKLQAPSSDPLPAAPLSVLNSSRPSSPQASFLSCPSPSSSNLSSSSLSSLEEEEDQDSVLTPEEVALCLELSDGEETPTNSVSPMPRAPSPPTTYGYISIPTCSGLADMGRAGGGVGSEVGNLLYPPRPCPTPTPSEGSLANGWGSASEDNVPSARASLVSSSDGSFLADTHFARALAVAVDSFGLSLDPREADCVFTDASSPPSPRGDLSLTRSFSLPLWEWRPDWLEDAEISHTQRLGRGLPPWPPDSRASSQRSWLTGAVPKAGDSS

binding result [1]: binds | binding result [2]: binds
B1: humanized MAb1 antibody H-1140 (antibody, human IgG2, kappa, V domains shown)
VH: EVQLVESGGGLVQPGGSLRLSCAASGFTFSTYAMSWVRQAPGKGLEWVATISQGGTYTYYPDSVKGRFTISRDNAKNTLYLQMNSLRAEDTAVYYCARLIYYDYLDYWGQGTLVTVSS
VL: DIVMTQSPLSLPVTLGEPASISCRSSQSLENSNGNTYLNWYLQKPGQSPQLLIYRVSNRFSGVPDRFSGSGSGTDFTLKISRVEAEDVGVYYCLQVTHVPWTFGPGTKVDIKR
notes: Human IgG2 / kappa constant regions; also called hMAb1-H2-type heavy chain + hMAb1-L1-type light chain
binding result [3]: no binding (tested: 10 µg/mL (method of 4)-3-2))
